The record followed here is the supplement of paper PMC10567573.

The chains are these.
B1: PI4K2A (parent)
chain: FVKDPQGRIIAVFKPKNEEPYGHL
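Also: lentivirally expressed fusions sorted by FACS into six bins by GFP to DsRed ratio, PSI derived from sequencing read proportions per bin multiplied by bin number.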

The data set covers variants of B1. The data set is described as follows: protein stability index of a GFP-peptide fusion (GPS, HEK-293T) (PSI 1-6); higher = more stable. As to conditions: c terminus: a fixed tail appended.
For the variant FVKDPQGRIIALFKPKNEEPYGHL [V12L], the protein stability index is 2.07.
Take FVKDPQGRIIAPFKPKNEEPYGHL [V12P]: the protein stability index is 2.46.
Then FVKDPQGRIIAHFKPKNEEPYGHL [V12H], with 2.9; and FVKDPQGRIIAIFKPKNEEPYGHL [V12I], with 1.85.
Then FVKDPQGRIIAEFKPKNEEPYGHL [V12E], with 1.74; and FVKDPQGRIIARFKPKNEEPYGHL [V12R], with 1.96; and FVKDPQGRIIAYFKPKNEEPYGHL [V12Y], with 1.93.
Then FVKDPQGRIIADFKPKNEEPYGHL [V12D], with 1.56; and FVKDPQGRIIAQFKPKNEEPYGHL [V12Q], with 2.5; and FVKDPQGRIIATFKPKNEEPYGHL [V12T], with 2.54.
With FVKDPQGRIIASFKPKNEEPYGHL [V12S], the protein stability index is 2.72.
On to FVKDPQGRIIAMFKPKNEEPYGHL [V12M], for which the protein stability index is 2.
Under FVKDPQGRIIAGFKPKNEEPYGHL [V12G] stands 2.44; under FVKDPQGRIIACFKPKNEEPYGHL [V12C], 2.04.
Under FVKDPQGRIIAWFKPKNEEPYGHL [V12W] stands 1.45.
Then FVKDPQGRIIAKFKPKNEEPYGHL [V12K], with 1.38; and FVKDPQGRIIAFFKPKNEEPYGHL [V12F], with 2.84.
On to FVKDPQGRIIAAFKPKNEEPYGHL [V12A], for which the protein stability index came to 3.17.
Under FVKDPQGRIIAVFKGKNEEPYGHL [P15G] stands 2.5.
With FVKDPQGRIIAVFKMKNEEPYGHL [P15M], the protein stability index came out at 2.1.
Under FVKDPQGRIIAVFKIKNEEPYGHL [P15I] stands 2.13; under FVKDPQGRIIAVFKQKNEEPYGHL [P15Q], 2.07; under FVKDPQGRIIAVFKAKNEEPYGHL [P15A], 2.18.
As for FVKDPQGRIIAVFKDKNEEPYGHL [P15D], the protein stability index is 1.9.
For the variant FVKDPQGRIIAVFKSKNEEPYGHL [P15S], the protein stability index was 1.96.
Then FVKDPQGRIIAVFKEKNEEPYGHL [P15E], with 2.37.
As for FVKDPQGRIIAVFKCKNEEPYGHL [P15C], the protein stability index was 1.66.
Under FVKDPQGRIIAVFKTKNEEPYGHL [P15T] stands 1.27.
Then FVKDPQGRIIAVFKNKNEEPYGHL [P15N], with 2.26.
Then FVKDPQGRIIAVFKRKNEEPYGHL [P15R], with 2.84; and FVKDPQGRIIAVFKVKNEEPYGHL [P15V], with 1.92; and FVKDPQGRIIAVFKYKNEEPYGHL [P15Y], with 2.4.
Regarding FVKDPQGRIIAVFKFKNEEPYGHL [P15F], the protein stability index came to 1.77.
Consider FVKDPQGRIIAVFKWKNEEPYGHL [P15W], for which the protein stability index worked out at 1.08.
Consider FVKDPQGRIIAVFKHKNEEPYGHL [P15H], for which the protein stability index is 1.58.
Under FVKDPQGRIIAVFKKKNEEPYGHL [P15K] stands 2.45; under FVKDPQGRIIAVFKLKNEEPYGHL [P15L], 2.26.
Then FVKDPQGRIIAVFKPKNEEKYGHL [P20K], with 1.2; and FVKDPQGRIIAVFKPKNEEAYGHL [P20A], with 2.94.
Then FVKDPQGRIIAVFKPKNEEHYGHL [P20H], with 1.74; and FVKDPQGRIIAVFKPKNEECYGHL [P20C], with 1.78; and FVKDPQGRIIAVFKPKNEEIYGHL [P20I], with 1.76.
FVKDPQGRIIAVFKPKNEEGYGHL [P20G]: the protein stability index amounted to 2.05.
For FVKDPQGRIIAVFKPKNEEFYGHL [P20F], the protein stability index amounted to 1.94.
Then FVKDPQGRIIAVFKPKNEEDYGHL [P20D], with 2.05; and FVKDPQGRIIAVFKPKNEELYGHL [P20L], with 1.55; and FVKDPQGRIIAVFKPKNEEEYGHL [P20E], with 1.75.
Under FVKDPQGRIIAVFKPKNEEMYGHL [P20M] stands 2.65; under FVKDPQGRIIDVFKPKNEEPYGHL [A11D], 2.94; under FVKDPQGRIIFVFKPKNEEPYGHL [A11F], 2.49.
Take FVKDPQGRIICVFKPKNEEPYGHL [A11C]: the protein stability index was determined as 1.27.
Then FVKDPQGRIIIVFKPKNEEPYGHL [A11I], with 1.37; and FVKDPQGRIIMVFKPKNEEPYGHL [A11M], with 2.01.
Under FVKDPQGRIIVVFKPKNEEPYGHL [A11V] stands 1.63; under FVKDPQGRIIGVFKPKNEEPYGHL [A11G], 2.72; under FVKDPQGRIIYVFKPKNEEPYGHL [A11Y], 1.32.
Then FVKDPQGRIIWVFKPKNEEPYGHL [A11W], with 2.88.
Regarding FVKDPQGRIIEVFKPKNEEPYGHL [A11E], the protein stability index is 2.07.
Under FVKDPQGRIILVFKPKNEEPYGHL [A11L] stands 1.61.
Under FVKDPQGRIIRVFKPKNEEPYGHL [A11R] stands 3.16; under FVKDPQGRIIPVFKPKNEEPYGHL [A11P], 3.18; under FVKDPQGRIIKVFKPKNEEPYGHL [A11K], 2.58.
Under FVKDPQGRIIQVFKPKNEEPYGHL [A11Q] stands 3.56; under FVKDPQGRIIHVFKPKNEEPYGHL [A11H], 1.41; under FVKDPQGRIWAVFKPKNEEPYGHL [I10W], 2.88.
Turning to FVKDPQGRIVAVFKPKNEEPYGHL [I10V], the protein stability index is 1.88.
Then FVKDPQGRITAVFKPKNEEPYGHL [I10T], with 2.09; and FVKDPQGRILAVFKPKNEEPYGHL [I10L], with 2.99.
In the case of FVKDPQGRIPAVFKPKNEEPYGHL [I10P], the protein stability index came to 2.56.
Under FVKDPQGRIMAVFKPKNEEPYGHL [I10M] stands 2.51; under FVKDPQGRIQAVFKPKNEEPYGHL [I10Q], 1.74.
For the variant FVKDPQGRIYAVFKPKNEEPYGHL [I10Y], the protein stability index is 2.28.
Then FVKDPQGRISAVFKPKNEEPYGHL [I10S], with 1.97; and FVKDPQGRINAVFKPKNEEPYGHL [I10N], with 2.35; and FVKDPQGRIRAVFKPKNEEPYGHL [I10R], with 2.85.
Then FVKDPQGRIIAVNKPKNEEPYGHL [F13N], with 1.99; and FVKDPQGRIIAVYKPKNEEPYGHL [F13Y], with 2.18.
Then FVKDPQGRIIAVDKPKNEEPYGHL [F13D], with 1.43; and FVKDPQGRIIAVAKPKNEEPYGHL [F13A], with 1.55; and FVKDPQGRIIAVEKPKNEEPYGHL [F13E], with 2.05.
Consider FVKDPQGRIIAVWKPKNEEPYGHL [F13W], for which the protein stability index was determined as 2.13.
As to FVKDPQGRIIAVSKPKNEEPYGHL [F13S], the protein stability index was 1.38.
Under FVKDPQGRIIAVTKPKNEEPYGHL [F13T] stands 1.94; under FVKDPQGRIIAVRKPKNEEPYGHL [F13R], 1.93; under FVKDPQGRIIAVHKPKNEEPYGHL [F13H], 2.24.
Then FVKDPQGRIIAVPKPKNEEPYGHL [F13P], with 2.3.
Then FVKDPQGRIIAVVKPKNEEPYGHL [F13V], with 1.92; and FVKDPQGRIIAVCKPKNEEPYGHL [F13C], with 2.48.
Consider FVKDPQGRIIAVLKPKNEEPYGHL [F13L], for which the protein stability index is 1.96.
With FVKDPQGRIIAVMKPKNEEPYGHL [F13M], the protein stability index turned out to be 1.28.
Consider FVKDPQGRIIAVKKPKNEEPYGHL [F13K], for which the protein stability index came out at 1.58.
Under FVKDPQGRIIAVQKPKNEEPYGHL [F13Q] stands 2.13.
With FVKDPQGRIIAVGKPKNEEPYGHL [F13G], the protein stability index was found to be 1.39.
Under FVKDPQGRIIAVIKPKNEEPYGHL [F13I] stands 2.5.
